Results on 22 molecules are retold here after patent US8247194 (Amgen, dated 2012).

Changes are numbered by the printed parent chain.

B1: half-human SCA C33oN-32 (scFv)
scFv: ELQLVEQSGAALVKPGDSVKMSCKASGYPFTDYIVHWVKQSHGKSLDWIGYINPYSGDTKFNEKFKSKATLTVDKSSSTAYMEFSRLTSEDSAIYYCARSGLIAVYFDYWGQGTTVTVSSGGGGSGGGGSGGGGSELVLTQSPEFQSVAPKEKVTITCRASQSIGSSLHWYQQKPDQSPKLLIKFASQSFSGVPSRFGGSGSGTNFTLTINSLEAEDAATYYCQQSSTLPPTFGQGTKLEIKTGDYKDDDDKHHHHHH
B2: half-human SCA B33oN-22 (scFv)
scFv: B1 scFv with E144D, A149T, G198S, N205D, S227Y, T228S, L229T, L239V
notes: Expressed from pComb3H5BFlag/His
B3: half-human SCA B32oN-67 (scFv)
scFv: ELQLVEQSGAALVKPGDSVKMSCKASGYPFTDYIVHWVKQSHGKSLDWIGYINPYSGDTKFNEKFKSKATLTVDKSSSTAYMEFSRLTSEDSAIYYCARSGLIAVYFDYWGQGTTVTVSSGGGGSGGGGSGGGGSELVLTQSPGFQSVTPKEKVTITCRASQSIGSSLHWYQQKPDQSPKLLIKFASQSISGVPSRFTGSGSGTDFTLTISSLQPEDIATYYCQQSYSTPWTFGQGTKLEIKTGDYKDDDDKHHHHHH
notes: as for B2
B4: half-human SCA B32oN-44 (scFv)
scFv: ELQLVEQSGAALVKPGDSVKMSCKASGYPFTDYIVHWVKQSHGKSLDWIGYINPYSGDTKFNEKFKSKATLTVDKSSSTAYMEFSRLTSEDSAIYYCARSGLIAVYFDYWGQGTTVTVSSGGGGSGGGGSGGGGSELVLTQSPDFQSVTPKEKVTITCRASQSIGSSLHWYQQKPDQPPKLLIKFASQSISRVPSRFSGTGSGTDFTLTINSLEAEDAATYYCQQSFSFPYTFGQGTKLEIKTGDYKDDDDKHHHHHH
notes: as for B2
B5: half-human SCA C32oN-34 (scFv)
scFv: ELQLVEQSGAALVKPGDSVKMSCKASGYPFTDYIVHWVKQSHGKSLDWIGYINPYSGDTKFNEKFKSKATLTVDKSSSTAYMEFSRLTSEDSAIYYCARSGLIAVYFDYWGQGTTVTVSSGGGGSGGGGSGGGGSELVLTQSPDFQSVTPKERVTITCRASQTIGNNLHWYQQKPGQSPKLLIKFASQSFSGVPSRFSGSGSGTDFTLTINSLEAEDAATYYCQQSYSTPWTFGQGTKVEIKTGDYKDDDDKHHHHHH
notes: as for B2
B6: half-human SCA C32oN-10 (scFv)
scFv: B5 scFv with R153K, T163S, N166S, N167S, G176D, F190L, A218F, W231S, Q235P
notes: as for B2
B7: half-human SCA B33oN-8 (scFv)
scFv: B3 scFv with H169N, S178P, P194S, T198S, S200T, I218V, W231P
notes: as for B2
B8: half-human SCA B32oN-73 (scFv)
scFv: B3 scFv with T198S, S200T
notes: as for B2
B9: half-human SCA B32oN-49 (scFv)
scFv: B3 scFv with G144D, I190L, T198S, I218F, S228T, W231P, Q235G, L239V
notes: as for B2
B10: half-human SCA B33oN-115 (scFv)
scFv: B3 scFv with G144D, I190L, T198S, I218F, W231S, Q235P, L239V
notes: as for B2
B11: half-human SCA C33oN-49 (scFv)
scFv: B5 scFv with R153K, T163S, N166S, N167S, G176D, V239L
notes: as for B2
B12: half-human SCA C32oN-92 (scFv)
scFv: B1 scFv with E144D, A149T, F190L, G198S, N205D, T207A
notes: as for B2
B13: half-human SCA B33oN-69 (scFv)
scFv: B1 scFv with E144D, A149T, S166T, S167G, G198S, N205D, S212G
notes: as for B2
B14: half-human SCA B33oN-21 (scFv)
scFv: B4 scFv with P178S, I190L, R192G, T200S, F227Y, F229T, Y231W
notes: as for B2
B15: half-human SCA C32oN-21 (scFv)
scFv: B1 scFv with E144G, A149T, F190I, G198S, S200T, N205D
notes: as for B2
B16: half-human SCA B32oN-48 (scFv)
scFv: B1 scFv with E144G, A149T, S178P, F190I, G198S, L239V
notes: as for B2
B17: half-human SCA C32oN-46 (scFv)
scFv: B3 scFv with G144D, I190L, T198S, I218F, W231P, L239V
notes: as for B2
B18: half-human SCA B33oN-66 (scFv)
scFv: B5 scFv with R153K, T163S, N166S, G176D, T207S, W231P, K238R, V239L
notes: as for B2
B19: half-human SCA B33oN-35 (scFv)
scFv: ELQLVEQSGAALVKPGDSVKMSCKASGYPFTDYIVHWVKQSHGKSLDWIGYINPYSGDTKFNEKFKSKATLTVDKSSSTAYMEFSRLTSEDSAIYYCARSGLIAVYFDYWGQGTTVTVSSGGGGSGGGGSGGGGSELQMTQSPSSLSASVGDRVTITCRASQSIGSSLHWYQQKPDQSPKLLIKFASQSFSGVPSRFGGSGSGTNFTLTINSLEAEDAATYYCQQSSTLPPTFGQGTKLEIKTGDYKDDDDKHHHHHH
notes: as for B2
B20: half-human SCA C32oN-89 (scFv)
scFv: ELQLVEQSGAALVKPGDSVKMSCKASGYPFTDYIVHWVKQSHGKSLDWIGYINPYSGDTKFNEKFKSKATLTVDKSSSTAYMEFSRLTSEDSAIYYCARSGLIAVYFDYWGQGTTVTVSSGGGGSGGGGSGGGGSELVLTQSPSSLSASVGDRVTITCRASQSISRYLNWYQQKPGKPPKLLIFVASNLQTGVPSRFSGSGSGTDFTLTISSLEPEDFAVYYCQQRSNWPLTFGGGTKVDIKTGDYKDDDDKHHHHHH
notes: as for B2
B21: half-human SCA B32oN-10 (scFv)
scFv: ELQLVEQSGAALVKPGDSVKMSCKASGYPFTDYIVHWVKQSHGKSLDWIGYINPYSGDTKFNEKFKSKATLTVDKSSSTAYMEFSRLTSEDSAIYYCARSGLIAVYFDYWGQGTTVTVSSGGGGSGGGGSGGGGSELQMTQSPSSLSASVGDRVTITCRTSQTISSLLNWYQQKPGKAPKLLIYAASNLQSGVPSRFSGSGSGTDFTLTISGLQPEDFSTYFCQQSYSFPRTFGQGTKVDIKTGDYKDDDDKHHHHHH
notes: as for B2
B22: half-human SCA B32oN-33 (scFv)
scFv: ELQLVEQSGAALVKPGDSVKMSCKASGYPFTDYIVHWVKQSHGKSLDWIGYINPYSGDTKFNEKFKSKATLTVDKSSSTAYMEFSRLTSEDSAIYYCARSGLIAVYFDYWGQGTTVTVSSGGGGSGGGGSGGGGSELVMTQSPATLSLSPGERATLSCRASQSVRTYLAWYQQKPGQAPRLLIYAASHRATGIPARFSGSGSGTDFTLTISRLEPEDFAVYYCQQYGSSPPTFGQGTKVEIKTGDYKDDDDKHHHHHH
notes: as for B2

The target of one test is T1, recombinant human GM-CSF (rhGM-CSF), produced in E. coli (human, UniProt P04141 18-144). Description: cell-based or functional assay.
T1 sequence (P04141 18-144 limits assumed): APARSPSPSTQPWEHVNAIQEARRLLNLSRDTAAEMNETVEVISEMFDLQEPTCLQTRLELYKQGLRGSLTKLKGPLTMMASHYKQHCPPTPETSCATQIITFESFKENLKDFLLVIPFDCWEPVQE
B1: the “IC50 (read off the curve), TF-1 proliferation, C33ON-32 dimer” value is around 0.1 µg/mL and the “IC50 (read off the curve), TF-1 proliferation, C33ON-32 mono” value was around 0.2 µg/mL.

The next test deals with T1, recombinant human GM-CSF (rhGM-CSF), …. As to the kind of experiment: SPR off-rate ranking, purified periplasmic preparation over immobilized rhGM-CSF; clone listed among the sequenced hits in the 2nd table. On the procedure:
FIG. 9: Binding analysis (kinetic off rate) of SCA hits derived from the method of the invention, as determined by SPR. Binding kinetics of the SCA hits were measured injecting 10 µL of purified periplasmic preparation ("PPP") protein solution with a flow rate of 5 µL/min at 25° C. onto the sensor chip. The data were monitored in all four flow cells. Background association with the unmodified CM5 chip surface (FC1) was substracted from the binding to the immobilised rhGM-CSF (FC2) allowing analysis of the specific binding signal (FC2-FC1 response difference). The dissociation rate was monitored for 100 sec (FIG. 4). The amplitude of the binding peak (RUmax) directly correlates to the protein concentration in the injected sample. The kinetic association rate constant (ka) is concentration dependent and can—due to varying concentrations of the PPP protein solution—not be used for the qualitative ranking of the purified PPP SCA material. The kinetic dissociation rate constant (kd) is protein concentration independent and characteristic for the binding strength of the respective SCA hit. The SCA hits with the best apparent off rate were identified.
With B2, the binding result was “binds”. Regarding B3, the binding result is “binds”. Still for that read-out and setting: with B4 the entry was “binds”. Consider B5, for which the binding result is on record as “binds”. On the same count and under the same terms, under B6 stands “binds”; under B7, “binds”.

Take B8: the binding result is given as “binds”. Consider B9, for which the binding result was “binds”. Take B10: the binding result was “binds”.

Turning to B11, the binding result is “binds”.

Take B12: the binding result is “binds”. Regarding B13, the binding result was “binds”. For B14, the binding result is recorded as “binds”. For B15, the binding result is “binds”. Same read-out and setting: with B16 the entry was “binds”; with B17, “binds”. B18: the binding result is reported as “binds”.

For B19, the binding result is “binds”. Same read-out and setting: with B20 the entry was “binds”; with B21, “binds”; with B22, “binds”.
